Reference: article PMC11026580
Like-named read-outs stand apart in the source and are kept apart here.

How the values were obtained:
IgA2 (m2) C2Q = test: SEC; analytical size-exclusion chromatography of affinity-purified IgA2 (m2) from small-scale transient transfections; JC co-expressed (LC:HC:JC 1:1:0.5)
[1] = target: extracellular domain of the human FcαRI (human) (UniProt P24071)
[2] = target: extracellular domain of the human FcαRI (human) (UniProt P24071); remark: listed apart in the source

Sequence of extracellular domain of the human FcαRI (human) (P24071 22-227): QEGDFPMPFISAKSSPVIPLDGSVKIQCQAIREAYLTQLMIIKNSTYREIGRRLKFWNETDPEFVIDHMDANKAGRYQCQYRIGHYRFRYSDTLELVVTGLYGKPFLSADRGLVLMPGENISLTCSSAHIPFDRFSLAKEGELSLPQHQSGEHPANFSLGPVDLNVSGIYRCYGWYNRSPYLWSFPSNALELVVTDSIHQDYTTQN

IgA2 (m2) C2Q (antibody)
stoichiometry N (IgA2 (m2) C2Q): 2

IgA2 (m2) C2Q (from UniProt P01877)
Kd [1]: 193 nM

IgA2 (m2) N2Q (from UniProt P01877)
Kd [2]: 303 nM
